According to doi:10.1101/2020.05.04.076190:

Target: MycWT bHLH-LZ;Max bHLH-LZ (p21 isoform) (human?;, UniProt P01106;P61244 ;, |)
Assay: EMSA

B1: CACGTG E-box probe (dsDNA)
DNA 1: GCGCGGGCACGTGGGCCGGGG
DNA 2: CCCCGGCCCACGTGCCCGCGC
binding result: binds
